US20140295012A1, “LATENT HUMAN IMMUNODEFICIENCY VIRUS REACTIVATION” (priority 2011, published 2014)
*1 amine or outer side, *2 acyl side, *3 side chain or, on linkers, in order; H or OH if unused. Where a SMILES comes first, the peptide text is derived from it. Bridges are numbered along the chain shown (N, C = ends). Roman numbers before positions name the chains, in order. [ ]: non-standard residue; d: D form. Actinocin(9to1) = Cc1c2oc3c(C)ccc(C(=O)[*:1])c3nc-2c(C(=O)[*:2])c(N)c1=O; NMeV = CN[C@H](C(=O)O)C(C)C; Sar = CNCC(=O)O

Columns and labels:
Assay type in all cases: cell-based
[1] = tested on: latently HIV-1 infected J89GFP T cells; assay: HIV-1 reactivation / priming in latently HIV-1 infected J89GFP T cells (GFP, flow cytometry, HTS)
Procedure: Flow cytometry. Infection levels in the cell cultures were monitored by flow cytometric (FCM) analysis of GFP expression. […] Cell sorting experiments were performed using a FACSAria™ Flow Cytometer (Becton&Dickinson). Data analysis was performed using either CellQuest (Becton&Dickinson) or GUAVA Express (GUAVA Technologies, Inc.).

[2] = tested on: latently HIV-1 infected reporter T cell lines
Procedure: FIGS. 1A and 1B show culture supernatants from Massilia timonae reactivate latent HIV-1 infection. […] Untreated control cells and HRF-treated cells were subjected to flow cytometric analysis to determine enhanced green fluorescent protein (EGFP) expression as a direct and quantitative marker of HIV-1 expression 24 hours post stimulation. FSC/SSC dot plots are represented to evaluate cell viability as a function of changes in the FSC (cell size)-SSC (granularity) phenotype of the cells. FIG. 1B is a histogram showing the reproducibility of the observed HIV-1 reactivation. Three independent preparations of HRF (batches HRF1-3) on four different latently infected T cell lines (5F3, 8E12, CA5 and 12D4) were tested. The percentage of EGFP positive cells following stimulation is depicted in the histogram. Cell culture supernatants of Pseudomonas aeruginosa cultures, grown under similar conditions, were used as specificity controls.
Infection levels in the cell cultures were monitored by flow cytometric analysis of EGFP expression. Flow cytometric analysis was performed on a GUAVA EasyCyte (Millipore; Billerica, Mass.), or a LSRII (Becton & Dickinson; Franklin Lakes, N.J.).

HIV-1 LTR = assay: Tat-independent activation of integrated LTR-GFP construct in NOMI reporter T cells; conditions: 24 hours
Procedure: (§1) FIGS. 6A-6C show HRF triggers suboptimal functional induction of NF-κB dependent gene expression. […] The HIV-1 reactivating kinetics were determined by stimulating CA5 T cells with optimal concentrations of HRF, phorbol 12-myristate 13-acetate (PMA) and tumor necrosis factor-α (TNF-α) and analyzing HIV-1 reactivation as a function of EGFP-expression over a period of 48 hours. Data for all agents are depicted as the percentage of EGFP-positive cells in the total cell population. […] To test the ability of HRF to mediate Tat-independent activation of the HIV-1 LTR, NOMI cells (HIV-1 reporter cell line with an integrated LTR-EGFP construct) were stimulated with increasing concentrations of PMA (0.01-10 ng/ml), TNF-α (0.003-30 μg/ml) and HRF supernatant (0.3-100 μl). The level of LTR-induction was then measured as EGFP-expression detectable after 24 hours as determined by flow cytometric analysis. Arrows indicate the concentrations at which the respective stimulus would have triggered full HIV-1 reactivation in the latently HIV-1 infected CA5 T cell line. […] 293T cells were transfected with several NF-κB dependent promoter constructs and then stimulated with either TNF-α (10 μg/ml) or HRF (25 μl). Promoter induction was measured as total EGFP expression. (NF-κB:pNF-κB-d2EGFP; LTR:HIV-1 LTR-GFP; IL-8:pIL-8 GFP; TNF:human TNF-GFP; MSCV:murine stem cell virus LTR driven GFP; no NF-κB responsive elements).
As the NF-κB pathway has been recognized as vital to HIV-1 activation, the ability of HRF to trigger NF-κB activation was investigated. It was initially determined that HRF had the ability to stimulate Tat independent activation of an integrated LTR-GFP construct in NOMI reporter T cells.

[3] = tested on: NF-κB dependent promoters in 293T cells; assay: NF-κB dependent promoter constructs transfected into 293T cells (EGFP expression)
Procedure: as §1
The utilized EGFP reporter virus HIV-1 NLENG1-IRES has been described elsewhere (Kutsch et al., J. Virol. 76:8776-86 (2002); Levy et al., Proc. Natl. Acad. Sci. USA 101:4204-9 (2004)). The reporter plasmid pNF-κB-d2EGFP was purchased from Clontech (Mountain View, Calif.). The LTR-GFP construct and the IL-8 reporter construct have been described earlier (Choi et al., Mol. Cell. Biol. 22:724-36 (2002)). The TNF-promoter construct was generated by cloning the human TNF-α promoter element defined by primer pair 5′-BglII; 5′-[…] […]-3′ (SEQ ID NO:2) and 3′-AgeI; 5′-[…] […]-3′ (SEQ ID NO:3) into pd2EGFP (Clontech). MSCV-GFP was generated by cloning the EGFP-gene into retroviral pMSCV-puro vector (Clontech).

cell culture = assay: Cytotoxicity in cell culture and therapeutic index
Source text: The HRFs provided herein show little to no cytotoxicity and have a therapeutic index greater than 300. A therapeutic index is a comparison of the amount of a therapeutic agent that causes a therapeutic effect to the amount that causes death. The therapeutic index is a ratio given by the lethal dose of a drug or agent for 50% of the population (LD50) divided by the minimum effective therapeutic dose for 50% of the population (ED50). A high therapeutic index is preferable.

[4] = tested on: HIV-1 replication in PBMCs; assay: HIV-1 replication in PBMCs infected with GFP reporter virus; conditions: saturating HRF levels, 5 days post infection
Procedure: FIGS. 8A-8C show HRF induced NF-κB and cytokine expression in peripheral blood mononuclear cells (PBMCs). […] PBMCs were activated with optimal concentrations of either PHA-L or with HRF. Cells were harvested at the indicated time points. Nuclear extracts were generated and NF-κB p50 activity and NF-κB p65 activity were determined using the TransAM™ NF-κB family ELISA kit (Active Motif). […] PBMCs from four different healthy donors were stimulated with an anti-CD3/CD28 antibody combination and infected with a GFP reporter virus on day 4 post-stimulation. HIV-1 replication was monitored in the absence (C) or presence of HRF for 5 days and the achieved HIV-1 infection levels were determined by flow cytometric analysis for the percentage of EGFP-positive cells. All infections were normalized to the infection level in the untreated culture and the histogram represents the mean infection levels obtained in 4 donor cultures±standard deviation. […] PBMCs from four healthy donors were left unstimulated (C) or stimulated with an anti-CD3/CD28 antibody combination as a positive control or were stimulated with a concentration of HRF that would trigger maximum HIV-1 reactivation in CA5 T cells. Culture supernatants were collected after 24 hours and the concentrations of a panel of cytokines was determined by BioPlex analysis. […]

NF-κB = NF-κB activity measured by GFP production in Jurkat T cells; conditions: compared with Salmonella typhimurium flagellin

## Cc1c2oc3c(C)ccc(C(=O)N[C@@H]4C(=O)N[C@H](C(C)C)C(=O)N5CCC[C@H]5C(=O)N(C)CC(=O)N(C)[C@@H](C(C)C)C(=O)O[C@@H]4C)c3nc-2c(C(=O)N[C@@H]2C(=O)N[C@H](C(C)C)C(=O)N3CCC[C@H]3C(=O)N(C)CC(=O)N(C)[C@@H](C(C)C)C(=O)O[C@@H]2C)c(N)c1=O [dactinomycin] (I: T[dV]P[Sar][NMeV] / II: T[dV]P[Sar][NMeV]; ester I:1-I:C, II:1-II:C; linker I:N-II:N via Actinocin(9to1))
[1]; in combination with sub-optimal TNF-α
  priming of latent HIV-1 infection for reactivation: potently primed latent HIV-1 infection for reactivation
[1]; relative to latently infected control cells
  HIV-1 reactivating capacity by itself: did not exhibit HIV-1 reactivating capacity by itself

B1: HRF: flagellin polypeptide from Massilia timonae (SEQ ID NO:10), used as bacterial culture supernatant (protein)
chain: MASVINTNVPSLNSQRNLSTSQAQLNTSIQRLSSGMRINSAKDDAAGLAISDRMNSQIKGMTQATRNANDGVSMAQTAEGALSSSGDILQRIRELAVQSSNSSNSASDRKALQTEVTQLSSELNRIANTTEFNGQKLMDGTLGTANFQVGANAGQLISMTGANFNTSVYGNNQIAGDAAKAAATTSAAATGAFTISGYLGTSAAINTTDADTAKTIAASINNVTGDTGVTATARTDSFLKSAGGAHTMSLASDNSGTGEAVDISFTVGDGGDTADDYAAAISAFNAQTAKTGVTAEYDAVEKGLKLTNSAGENISLTNKAGSADIDMDTYAADGALMASALTLEAGDVGVANGRVTMDSEKSFSVAEGTDTGFELADSSALKSVAKIDISDFEGAQEAIKVADAALSAVNSQRAEYGALQSRFESAISNLSSSTENLSASRSRIVDTDFAAETAKMTRGQILQQAGTSMLAQANSLPNGVLSLLRG
[2]; culture supernatant on latently infected reporter T cell lines
  cell viability (flow cytometric FSC/SSC analysis): No effect on cell viability
[2]; four latently infected reporter T cell lines, culture supernatant
  HIV-1 reactivation: efficiently reactivate latent HIV-1 infection
HIV-1 LTR
  Tat-independent activation of integrated LTR-GFP construct (GFP expression): modest increase in GFP expression
[3]
  GFP expression driven by NF-κB responsive promoter constructs (IL-8, TNF-α, HIV-1 LTR, three consensus NF-κB sites): weak GFP expression
  GFP expression of construct under control of murine stem cell virus LTR (no NF-κB responsive element): Neither TNF-α nor HRF influenced GFP expression
Cell culture
  cytotoxicity in cell culture: far less cytotoxic
Cell culture; LD50/ED50
  therapeutic index: > 300
[4]
  HIV-1 replication: not significantly increased
NF-κB
  NF-κB activity and NF-κB driven gene expression: lower levels of NF-κB activity and NF-κB driven gene expression than flagellin from Salmonella typhimurium
